The data set concerns ORCA-3 (Catharanthus roseus). Briefly: cell_activity. Particulars: GUS/CAT, C. roseus cells.
Chain of ORCA-3 (Catharanthus roseus) (chain, as listed by the source): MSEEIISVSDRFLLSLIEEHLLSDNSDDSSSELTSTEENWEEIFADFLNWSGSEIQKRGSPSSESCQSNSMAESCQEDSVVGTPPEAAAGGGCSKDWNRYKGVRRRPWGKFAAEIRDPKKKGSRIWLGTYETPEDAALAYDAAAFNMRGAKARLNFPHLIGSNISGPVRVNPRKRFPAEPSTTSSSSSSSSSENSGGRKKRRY

Substance Str1 NH promoter (-202 to -1) registered an activity (fold activation) of 5.

These data come from patent publication US7393946.
